Data from EP4491230A1 (iOmx Therapeutics AG, dated 2025).

Target: recombinant LILRA1 ECD (human, UniProt O75019 17-461)
Test: BLI, IgG on AHC sensor, ECD as analyte

Chain of recombinant LILRA1 ECD (O75019 17-461 limits assumed): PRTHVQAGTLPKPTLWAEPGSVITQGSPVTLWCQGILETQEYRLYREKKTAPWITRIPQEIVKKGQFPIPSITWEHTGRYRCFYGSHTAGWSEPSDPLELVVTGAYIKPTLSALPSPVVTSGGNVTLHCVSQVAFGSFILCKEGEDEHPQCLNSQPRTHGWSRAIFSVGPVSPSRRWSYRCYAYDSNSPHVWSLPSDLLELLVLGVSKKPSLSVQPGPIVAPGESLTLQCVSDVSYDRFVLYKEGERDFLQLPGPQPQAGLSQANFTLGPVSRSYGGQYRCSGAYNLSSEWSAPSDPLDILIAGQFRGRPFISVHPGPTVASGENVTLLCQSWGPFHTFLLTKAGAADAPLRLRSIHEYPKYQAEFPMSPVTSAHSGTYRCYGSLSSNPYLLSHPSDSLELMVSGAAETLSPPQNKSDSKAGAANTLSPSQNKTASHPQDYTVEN

B1: A-046 (antibody, V domains shown)
VH: QVQLVQSGAEVKKPGSSVKVSCKASGGSFQSYAINWVRQAPGQGLEWMGGIIPGFSTANYAQKFQGRVTITADESTSTAYMELSSLRSEDTAVYYCAKDLGTYSSGWPYYYGMDVWGQGTTVTVSS
VL: SYELTQPPSVSVSPGQTASITCSGDKLGDKYASWYQQKPGQSPVLVIYQDSKRPSGIPERFSGSNSGNTATLTISGTQAEDEADYYCQLTHLTIYVFGGGTKLTVL
notes: HC of A-015 and LC of A-036; Tested as IgG
B1: no binding (tested: 900 nM of LILRA1 ECD).
